The source of these data is patent publication US20050229265.

Data set [1] has as its target T1, P element transposase (delta 2-3) (UniProt Q7M3K2).
T1 sequence: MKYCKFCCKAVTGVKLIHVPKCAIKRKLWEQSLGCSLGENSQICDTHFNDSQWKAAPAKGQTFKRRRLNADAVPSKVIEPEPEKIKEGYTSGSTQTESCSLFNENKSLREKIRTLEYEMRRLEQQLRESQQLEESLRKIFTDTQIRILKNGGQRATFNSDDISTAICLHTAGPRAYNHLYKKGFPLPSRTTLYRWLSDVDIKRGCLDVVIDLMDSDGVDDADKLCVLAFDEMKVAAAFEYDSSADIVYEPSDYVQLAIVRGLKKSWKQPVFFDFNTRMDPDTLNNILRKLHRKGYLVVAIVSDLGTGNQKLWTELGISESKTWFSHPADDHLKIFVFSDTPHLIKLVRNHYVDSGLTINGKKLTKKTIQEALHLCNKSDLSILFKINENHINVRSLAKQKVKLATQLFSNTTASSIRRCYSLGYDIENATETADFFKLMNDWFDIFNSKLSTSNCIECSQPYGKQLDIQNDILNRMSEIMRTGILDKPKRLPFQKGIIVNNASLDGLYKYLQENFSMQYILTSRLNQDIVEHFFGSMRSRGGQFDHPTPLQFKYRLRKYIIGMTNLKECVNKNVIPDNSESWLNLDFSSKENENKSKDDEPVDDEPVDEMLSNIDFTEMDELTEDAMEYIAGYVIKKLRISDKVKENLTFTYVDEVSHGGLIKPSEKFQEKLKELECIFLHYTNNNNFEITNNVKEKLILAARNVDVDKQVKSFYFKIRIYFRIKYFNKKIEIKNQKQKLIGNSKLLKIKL
The data set can be described thus: cell_activity. The note with it: germline remobilization in Drosophila, delta 2-3 at 99B.

A further data set concerns piggyBac transposase. In words: cell_activity. The settings on record: germline remobilization rate in Drosophila with constitutive transposase; TTAA target; 10% with heat shock helper.

In data set [1], XP (P element) transposon had an activity of 50%.

piggyBac transposon pB[w+] yielded an activity in the data set with piggyBac transposase of 60%.
